For orientation: stoichiometry N means a count of units in the complex or per binding partner.

These results are taken from paper PMC3879576.

Test [1] has as its target Bet v 1a Y5C mutant (birch) (UniProt P15494). Description: not stated; analysis of purified Bet v 1a Y5C; method of the analysis not named; similar redox sensitivity as the dimer of the WT preparation.
The target is the same in test [2]. Nature of the test: SEC; Superdex 75 size exclusion chromatography (gel filtration) separating monomeric and dimeric forms. Background: Size exclusion chromatography separates by hydrodynamic size, large species first.
The target of test [3] is dimeric Bet v 1a purified from the WT Bet v 1a preparation, with cysteine incorporated at position 5 instead of the encoded tyrosine (birch) (UniProt P15494). Described as above.

The substance “Bet v 1a Y5C mutant (from UniProt P15494 1-160) (natural protein)” came in with a percent dimerization in test [1] of 90%. The stoichiometry N in test [2] is 2. In turn, “dimeric Bet v 1a purified from the WT Bet v 1a preparation, with cysteine incorporated at position 5 instead of the encoded tyrosine (from UniProt P15494 1-160) (natural protein)” registered a stoichiometry N in test [3] of 2.
